Test results published in PMC7504102, “The Penta-EF-Hand ALG-2 Protein Interacts with the Cytosolic Domain of the SOCE Regulator SARAF and Interferes with Ubiquitination” (International Journal of Molecular Sciences, 2020).

How the values were obtained:
[1] = target: T1, SGFP2-fused SARAF partial fragment (SARAF-p) (human, UniProt Q96BY9 195-339); test: pull-down; SGFP2-fused proteins held on protein G magnetic beads via anti-GFP pAb; incubated with Nluc-ALG-2 (300 ng/mL) in buffer HKM, 0.2% Nonidet P-40, 0.1% gelatin, 100 μM CaCl2, 2 h, 4 °C; bound luciferase activity relative to Sec31A-p (100%); details: one partner purified
T1 construct: source: HEK293 ALG-2KD, transfected, immunoprecipitated with anti-GFP pAb from cleared lysate
T1 sequence (looked up): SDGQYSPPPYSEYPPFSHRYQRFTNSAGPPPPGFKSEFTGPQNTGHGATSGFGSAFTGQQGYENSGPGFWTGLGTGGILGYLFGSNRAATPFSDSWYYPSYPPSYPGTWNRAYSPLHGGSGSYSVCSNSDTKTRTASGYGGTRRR

[2] = target: T2, StrepHA-SARAF_CytD-SGFP2 F228S (human, UniProt Q96BY9 195-339, F228S); test: co-IP; co-IP/HiBiT assay: SGFP2-fused proteins immunoprecipitated with anti-GFP pAb from HEK293 or HEK293 ALG-2KO lysates (with or without co-expressed FLAG-ALG-2); HKM, 1% Nonidet P-40, 10 mM NEM, 10 μM CaCl2; co-precipitated HiBiTHA-SARAF read by lytic HiBiT assay with LgBiT, normalised by StrepTactin-AP; details: partners not purified
T2 construct: SARAF CytD, human, 195-339 a.a., F228S; also called F228S mutant; source: HEK293 or HEK293 ALG-2KO, transfected, in lysate; not shown: Twin-Strep, N-terminal, kept; 3xHA, N-terminal, kept; SGFP2, C-terminal, kept
T2 sequence (looked up): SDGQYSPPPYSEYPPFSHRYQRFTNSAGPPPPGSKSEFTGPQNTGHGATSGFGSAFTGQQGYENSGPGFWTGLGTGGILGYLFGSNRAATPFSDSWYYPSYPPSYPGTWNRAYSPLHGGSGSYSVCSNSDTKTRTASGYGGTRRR

[3] = target: T3, StrepHA-SARAF_CytD-SGFP2 (WT) (human, UniProt Q96BY9 195-339); test: as above; details: partners not purified
T3 construct: SARAF cytosolic domain (CytD), human, 195-339 a.a; source: HEK293 or HEK293 ALG-2KO, transfected, in lysate; not shown: Twin-Strep, N-terminal, kept; 3xHA, N-terminal, kept; SGFP2, C-terminal, kept
T3 sequence (looked up): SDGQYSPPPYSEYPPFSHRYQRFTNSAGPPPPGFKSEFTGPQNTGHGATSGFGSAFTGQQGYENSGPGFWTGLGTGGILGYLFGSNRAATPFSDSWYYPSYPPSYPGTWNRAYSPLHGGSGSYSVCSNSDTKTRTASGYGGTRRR

B1: nanoluciferase (NanoLuc, Nluc)-fused ALG-2 (natural protein, UniProt O75340 1-191, looked up)
chain: MAAYSYRPGPGAGPGPAAGAALPDQSFLWNVFQRVDKDRSGVISDTELQQALSNGTWTPFNPVTVRSIISMFDRENKAGVNFSEFTGVWKYITDWQNVFRTYDRDNSGMIDKNELKQALSGFGYRLSDQFHDILIRKFDRQGRGQIAFDDFIQGCIVLQRLTDIFRRYDTDQDGWIQVSYEQYLSMVFSIV
notes: synthetic gene for bacterial expression in pET24d; The whole Nluc-ALG-2 fusion is deposited as LC381846; also called Nluc-ALG-2; NlucALG-2
For B1, the “binding activity relative to Sec31A-p (100%)” value [1] was 71.5%.

B2: full-length HiBiTHA-SARAF F228S (natural protein, human, UniProt Q96BY9 31-339, looked up)
chain: WNDPDRMLLRDVKALTLHYDRYTTSRRLDPIPQLKCVGGTAGCDSYTPKVIQCQNKGWDGYDVQWECKTDLDIAYKFGKTVVSCEGYESSEDQYVLRGSCGLEYNLDYTELGLQKLKESGKQHGFASFSDYYYKWSSADSCNMSGLITIVVLLGIAFVVYKLFLSDGQYSPPPYSEYPPFSHRYQRFTNSAGPPPPGSKSEFTGPQNTGHGATSGFGSAFTGQQGYENSGPGFWTGLGTGGILGYLFGSNRAATPFSDSWYYPSYPPSYPGTWNRAYSPLHGGSGSYSVCSNSDTKTRTASGYGGTRRR
notes: signal peptide in the construct; SARAF, human, full length, HiBiTHA inserted after the signal peptide; F228S; source: HEK293, transfected, in lysate; not shown: HiBiT, internal (after residue 30), kept
For B2, the “relative interaction activity (WT expressed as 100%)” value [2] was ~15 % of WT.

B3: full-length HiBiTHA-SARAF (WT) (natural protein, human, UniProt Q96BY9 31-339, looked up)
chain: WNDPDRMLLRDVKALTLHYDRYTTSRRLDPIPQLKCVGGTAGCDSYTPKVIQCQNKGWDGYDVQWECKTDLDIAYKFGKTVVSCEGYESSEDQYVLRGSCGLEYNLDYTELGLQKLKESGKQHGFASFSDYYYKWSSADSCNMSGLITIVVLLGIAFVVYKLFLSDGQYSPPPYSEYPPFSHRYQRFTNSAGPPPPGFKSEFTGPQNTGHGATSGFGSAFTGQQGYENSGPGFWTGLGTGGILGYLFGSNRAATPFSDSWYYPSYPPSYPGTWNRAYSPLHGGSGSYSVCSNSDTKTRTASGYGGTRRR
notes: signal peptide in the construct; SARAF, human, full length; HiBiT and 3xHA (HiBiTHA) inserted between the signal peptide and the N-terminus of mature SARAF (31-339 a.a.); construction is in the Supplementary Information; source: HEK293 or HEK293 ALG-2KO, transfected, in lysate; not shown: HiBiT, internal (after residue 30), kept
B3 was tested, and the “fold enhancement, Ca2+ over 5 mM EGTA, HEK293 ALG-2KO cells” value [3] was 1.3 fold and the “fold enhancement, Ca2+ over 5 mM EGTA, parental HEK293 cells” value [3] was 3.7 fold.
